Assay [1] addresses 7xHis-SUMO-MtbClpC1 (M. tuberculosis) (UniProt P9WPC9). The assay is described as follows: MST.
The target is the same in assay [2]. In words: MST. The source holds these as a separate data set.
Assay [3] concerns the target Leu-LFVQLASK peptide conjugated to CSGSK^TAMRA. The assay is described as follows: fluorescence polarisation. In general terms: Fluorescence polarisation rises when a labelled molecule tumbles more slowly, as on binding a larger partner.
Assay [4] concerns the target Phe-LFVQLASK peptide conjugated to CSGSK^TAMRA. The assay is described as follows: fluorescence polarisation.
For assay [5], the target named is Trp-LFVQLASK peptide conjugated to CSGSK^TAMRA. The assay is described as follows: fluorescence polarisation.
Assay [6] addresses Tyr-LFVQLASK peptide conjugated to CSGSK^TAMRA. In words: fluorescence polarisation.
The next assay has as its target T1, E. coli ClpS (E. coli, UniProt P0A8Q6 1-106).
T1 sequence: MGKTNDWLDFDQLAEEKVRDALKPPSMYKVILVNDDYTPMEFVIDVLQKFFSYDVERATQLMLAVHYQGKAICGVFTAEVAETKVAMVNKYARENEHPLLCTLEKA
In words: fluorescence polarisation.

Where two headings read alike, the source gives them in different places. Side chains are listed from the residue outwards. Ends that are not written are not given here. maleimide = maleimide function on the C-terminal Lys

Results on five molecules are retold here after paper doi:10.1101/2024.06.12.598358 (bioRxiv, 2024).

Chain of 7xHis-SUMO-MtbClpC1 (M. tuberculosis) (P9WPC9 whole entry): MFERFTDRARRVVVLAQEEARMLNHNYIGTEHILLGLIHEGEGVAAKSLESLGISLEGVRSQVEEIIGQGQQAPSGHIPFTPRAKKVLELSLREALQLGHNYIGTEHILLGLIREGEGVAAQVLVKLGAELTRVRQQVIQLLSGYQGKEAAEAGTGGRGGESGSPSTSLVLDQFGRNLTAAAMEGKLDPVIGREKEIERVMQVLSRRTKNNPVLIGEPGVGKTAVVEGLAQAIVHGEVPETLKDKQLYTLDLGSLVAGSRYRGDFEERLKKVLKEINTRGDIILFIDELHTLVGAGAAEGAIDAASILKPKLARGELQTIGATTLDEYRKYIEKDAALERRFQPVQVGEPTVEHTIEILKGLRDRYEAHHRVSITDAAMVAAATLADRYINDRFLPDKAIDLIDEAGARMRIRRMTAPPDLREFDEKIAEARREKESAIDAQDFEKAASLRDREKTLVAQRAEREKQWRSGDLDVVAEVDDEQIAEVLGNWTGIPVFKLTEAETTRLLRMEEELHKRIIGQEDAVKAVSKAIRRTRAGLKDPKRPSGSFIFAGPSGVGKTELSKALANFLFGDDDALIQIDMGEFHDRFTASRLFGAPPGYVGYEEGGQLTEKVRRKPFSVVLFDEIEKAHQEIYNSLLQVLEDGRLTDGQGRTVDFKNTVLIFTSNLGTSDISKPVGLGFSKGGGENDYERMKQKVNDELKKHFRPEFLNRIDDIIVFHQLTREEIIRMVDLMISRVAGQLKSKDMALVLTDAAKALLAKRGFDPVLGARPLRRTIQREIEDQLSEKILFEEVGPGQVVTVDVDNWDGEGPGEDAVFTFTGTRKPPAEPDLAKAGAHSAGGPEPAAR

As a reminder, the Kd is the constant that tells how readily two partners part at equilibrium. For the molecule M. smegmatis ClpS (natural protein), the Kd in assay [1] is 100 µM; in assay [2] it was 3.5 µM; in assay [3], 42 µM; in assay [4], 6.5 µM; in assay [5] it was 11 µM; in assay [6], 8.8 µM.

On to WLFVQLASK([maleimide-CSGSK(TAMRA)]) (not fully specified) [Trp-LFVQLASK peptide conjugated to CSGSK^TAMRA], for which the binding result in the assay with E. coli ClpS is “binds”.

In the case of FLFVQLASK([maleimide-CSGSK(TAMRA)]) (not fully specified) [Phe-LFVQLASK peptide conjugated to CSGSK^TAMRA], the binding result with E. coli ClpS is listed as “binds”.

As to YLFVQLASK([maleimide-CSGSK(TAMRA)]) (not fully specified) [Tyr-LFVQLASK peptide conjugated to CSGSK^TAMRA], in the assay with E. coli ClpS, the binding result is “binds”.

As to LLFVQLASK([maleimide-CSGSK(TAMRA)]) (not fully specified) [Leu-LFVQLASK peptide conjugated to CSGSK^TAMRA], the binding result with E. coli ClpS is “binds”.
